Assay results as given in patent publication US20120195831A1 (published 2012).

Tests used:
[1] = biological target: T1, EGFR on CHO cells (CHO-EGFR) (UniProt P00533 25-1210, limits assumed); assay: FACS on CHO-EGFR cells, purified IgG, R-PE anti-mouse IgG
T1 construct: whole, on cells
Description: (§1) CHO-Her2, CHO-Her4, CHO-EGFR cells were harvested and resuspended in PBS, 2% FBS at a concentration of approximately 1×10⁶/ml. Cells were stained with purified IgGs at 4° C. for 40 min. Cells were washed with 4 mL PBS, 2% FBS, then centrifuged at 1200 rpm for 10 minutes. Supernatant was removed. Cells were stained with R-PE conjugated anti-mouse IgG at 4° C. for 30 min. Cells were washed with 4 mL PBS, 2% FBS, then centrifuged at 1200 rpm for 10 minutes. Supernatant was removed and cell pellets were fixed in 1% formaldehyde. Cells were analyzed on a FACS Calibur (BD Biosciences) by collecting 20,000 events from gate 1.

[2] = biological target: T2, human Her3 receptor on cells (T47D, MCF7) (human, UniProt P21860 20-1342); assay: cell-based or functional assay
T2 sequence (P21860 20-1342 limits assumed, stated change not applied): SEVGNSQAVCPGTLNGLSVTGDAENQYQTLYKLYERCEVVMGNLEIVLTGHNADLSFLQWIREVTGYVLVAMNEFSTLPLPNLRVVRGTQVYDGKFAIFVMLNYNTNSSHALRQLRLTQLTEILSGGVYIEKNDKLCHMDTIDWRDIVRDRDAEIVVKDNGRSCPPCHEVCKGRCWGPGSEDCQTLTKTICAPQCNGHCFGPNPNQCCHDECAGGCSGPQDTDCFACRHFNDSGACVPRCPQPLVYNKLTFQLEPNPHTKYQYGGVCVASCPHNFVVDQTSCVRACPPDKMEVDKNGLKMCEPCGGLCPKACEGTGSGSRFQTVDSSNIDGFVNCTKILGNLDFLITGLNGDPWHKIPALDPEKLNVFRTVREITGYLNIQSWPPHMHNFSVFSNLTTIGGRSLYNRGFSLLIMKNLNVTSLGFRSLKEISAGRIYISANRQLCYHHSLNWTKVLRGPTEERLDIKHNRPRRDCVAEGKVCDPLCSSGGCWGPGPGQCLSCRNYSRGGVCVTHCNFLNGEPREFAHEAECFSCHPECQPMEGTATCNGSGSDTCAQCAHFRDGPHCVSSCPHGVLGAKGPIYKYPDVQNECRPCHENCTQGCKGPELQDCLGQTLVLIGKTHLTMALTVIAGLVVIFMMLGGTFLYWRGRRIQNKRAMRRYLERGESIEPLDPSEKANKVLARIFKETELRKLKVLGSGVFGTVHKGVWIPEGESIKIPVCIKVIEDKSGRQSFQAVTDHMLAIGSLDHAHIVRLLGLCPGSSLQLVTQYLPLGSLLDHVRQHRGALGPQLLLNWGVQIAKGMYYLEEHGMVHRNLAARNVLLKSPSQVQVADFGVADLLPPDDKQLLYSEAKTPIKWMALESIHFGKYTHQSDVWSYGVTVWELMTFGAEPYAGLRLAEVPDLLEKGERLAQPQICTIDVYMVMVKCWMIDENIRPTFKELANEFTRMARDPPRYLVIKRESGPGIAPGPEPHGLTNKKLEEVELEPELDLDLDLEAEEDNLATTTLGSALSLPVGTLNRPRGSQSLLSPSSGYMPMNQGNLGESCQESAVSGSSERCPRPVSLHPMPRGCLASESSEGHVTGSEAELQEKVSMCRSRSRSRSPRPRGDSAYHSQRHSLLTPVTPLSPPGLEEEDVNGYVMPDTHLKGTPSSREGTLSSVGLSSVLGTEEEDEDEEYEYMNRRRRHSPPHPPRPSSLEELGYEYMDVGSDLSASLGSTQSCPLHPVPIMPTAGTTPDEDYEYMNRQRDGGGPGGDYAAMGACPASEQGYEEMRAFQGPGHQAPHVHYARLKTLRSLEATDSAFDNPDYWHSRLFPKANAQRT

[3] = biological target: T3, Recombinant Human Her3 (Her3/ErbB3 extracellular domain) (human, UniProt P21860 20-643); assay: SPR (BIAcore), Mab captured by anti-IgG Fc on CM5 chip, recombinant human Her3 as analyte, 25 °C
T3 construct: Analyte of the BIAcore assay; also called Her3 ECD; human Her3/ErbB3 extracellular domain
T3 sequence (P21860 20-643 limits assumed): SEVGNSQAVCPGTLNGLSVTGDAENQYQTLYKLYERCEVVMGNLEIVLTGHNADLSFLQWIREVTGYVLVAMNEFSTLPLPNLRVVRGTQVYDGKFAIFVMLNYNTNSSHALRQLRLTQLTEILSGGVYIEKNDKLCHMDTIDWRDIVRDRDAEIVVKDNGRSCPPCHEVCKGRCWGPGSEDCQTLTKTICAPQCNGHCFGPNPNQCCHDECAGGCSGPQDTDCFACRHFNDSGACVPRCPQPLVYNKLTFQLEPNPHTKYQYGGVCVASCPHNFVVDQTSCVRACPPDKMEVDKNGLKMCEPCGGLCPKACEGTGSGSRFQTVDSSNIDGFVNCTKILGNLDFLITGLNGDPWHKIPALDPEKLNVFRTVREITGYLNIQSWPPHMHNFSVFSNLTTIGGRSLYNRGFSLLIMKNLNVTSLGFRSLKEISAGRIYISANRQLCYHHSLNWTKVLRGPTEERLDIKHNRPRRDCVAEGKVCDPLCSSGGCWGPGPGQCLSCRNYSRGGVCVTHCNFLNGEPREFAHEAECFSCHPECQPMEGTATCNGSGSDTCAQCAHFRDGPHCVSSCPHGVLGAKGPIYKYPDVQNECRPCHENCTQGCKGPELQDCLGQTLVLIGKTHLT
Description: All experiments were performed at 25° C. at a flow rate of 40 μl/min. To prepare a BIAcore assay, an anti-human IgG-Fc antibody (50 μg/ml each in acetate buffer, pH 5.0) was immobilized onto a carboxymethyl dextran sensorchip (CM5) using amine coupling procedures as described by the manufacturer. 10000 resonance units (RU) of anti-mouse IgG Fc antibodies were linked respectively onto Flowcells (FC) 1 and 2. Purified Mabs to be tested were diluted at a concentration of 5 μg/ml in 0.5% P20, HBS-EP buffer and injected on FC2 to reach 500 to 1000 RU. FC1 was used as the reference cell. Specific signals correspond to the difference of signals obtained on FC2 versus FC1. The analyte (Recombinant Human Her3, apparent molecular weight 97 kDa) was injected during 90 sec at 5 different concentrations (100, 50, 25, 12.5 and 6.25 nM) in 0.5% P20, HBS-EP buffer. These concentrations were prepared from stock solution in 0.5% P20, HBS-EP. The dissociation phase of the analyte was monitored over a 10 minutes period. Running buffer was also injected under the same conditions as a double reference. After each cycle (antibody+Her3 injection), both Flowcells were regenerated by injecting 20 to 45 μl of Glycine-HCl buffer pH 1.5. This regeneration is sufficient to eliminate all Mabs and Mabs/Her3 complexes captured on the sensorchip. Table 1 listed binding KD for Her3 binding monoclonal antibodies.

[4] = biological target: T2, human Her3 receptor on cells (T47D, …); assay: cell-based or functional assay; remark: listed apart in the source
[5] = biological target: T4, Her4 on CHO cells (CHO-Her4) (UniProt Q15303 26-1308, limits assumed); assay: FACS on CHO-Her4 cells, purified IgG, R-PE anti-mouse IgG
T4 construct: whole, on cells
T4 sequence (Q15303 26-1308 limits assumed): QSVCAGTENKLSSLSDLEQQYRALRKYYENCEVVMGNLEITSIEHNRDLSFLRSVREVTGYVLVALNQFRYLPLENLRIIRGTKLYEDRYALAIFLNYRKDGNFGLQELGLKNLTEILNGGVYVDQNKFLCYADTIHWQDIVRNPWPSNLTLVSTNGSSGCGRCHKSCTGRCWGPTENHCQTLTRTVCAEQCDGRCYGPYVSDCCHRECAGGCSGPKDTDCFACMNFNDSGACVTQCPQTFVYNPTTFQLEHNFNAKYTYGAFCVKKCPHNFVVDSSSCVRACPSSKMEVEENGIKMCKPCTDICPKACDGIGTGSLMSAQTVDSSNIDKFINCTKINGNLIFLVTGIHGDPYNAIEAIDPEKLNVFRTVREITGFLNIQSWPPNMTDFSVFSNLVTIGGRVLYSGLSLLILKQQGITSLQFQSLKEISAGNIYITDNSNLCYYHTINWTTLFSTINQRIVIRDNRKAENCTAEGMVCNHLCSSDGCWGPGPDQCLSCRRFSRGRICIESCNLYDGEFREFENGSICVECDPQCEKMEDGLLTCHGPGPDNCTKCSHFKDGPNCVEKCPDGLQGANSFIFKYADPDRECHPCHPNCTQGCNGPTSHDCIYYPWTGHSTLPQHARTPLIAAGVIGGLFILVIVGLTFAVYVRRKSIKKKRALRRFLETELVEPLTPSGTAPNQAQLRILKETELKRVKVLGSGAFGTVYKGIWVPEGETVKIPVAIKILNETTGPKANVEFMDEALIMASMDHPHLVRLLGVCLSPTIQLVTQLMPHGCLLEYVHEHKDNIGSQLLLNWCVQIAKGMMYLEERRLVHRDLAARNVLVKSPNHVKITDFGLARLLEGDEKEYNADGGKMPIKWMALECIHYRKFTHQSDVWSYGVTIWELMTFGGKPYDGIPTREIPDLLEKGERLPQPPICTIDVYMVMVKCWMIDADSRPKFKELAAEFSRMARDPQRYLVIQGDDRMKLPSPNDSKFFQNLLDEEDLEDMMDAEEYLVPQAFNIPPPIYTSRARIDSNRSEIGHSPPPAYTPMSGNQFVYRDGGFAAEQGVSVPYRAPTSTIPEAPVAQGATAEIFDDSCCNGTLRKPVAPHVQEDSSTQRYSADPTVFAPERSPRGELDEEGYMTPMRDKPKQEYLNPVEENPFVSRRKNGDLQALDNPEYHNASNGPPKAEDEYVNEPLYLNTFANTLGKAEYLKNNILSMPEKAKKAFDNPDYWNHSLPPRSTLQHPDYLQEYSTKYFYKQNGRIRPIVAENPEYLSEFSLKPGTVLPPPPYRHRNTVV
Description: as §1

[6] = biological target: T2, human Her3 receptor on cells (T47D, …); assay: cell-based or functional assay; remark: listed apart in the source
[7] = biological target: T5, Her2 on CHO cells (CHO-Her2) (UniProt P04626 23-1255, limits assumed); assay: FACS on CHO-Her2 cells, purified IgG, R-PE anti-mouse IgG
T5 construct: whole, on cells
Description: as §1

mouse HER3/ErbB3 = biological target: T6, mouse HER3/ErbB3 (mouse, UniProt Q61526); assay: FACS, purified IgG on CHO cells expressing mouse Her3, R-PE anti-mouse IgG
T6 construct: receptor expressed on CHO cells; also called mouse Her3 receptor on CHO cells
T6 sequence (Q61526 20-1339 limits assumed): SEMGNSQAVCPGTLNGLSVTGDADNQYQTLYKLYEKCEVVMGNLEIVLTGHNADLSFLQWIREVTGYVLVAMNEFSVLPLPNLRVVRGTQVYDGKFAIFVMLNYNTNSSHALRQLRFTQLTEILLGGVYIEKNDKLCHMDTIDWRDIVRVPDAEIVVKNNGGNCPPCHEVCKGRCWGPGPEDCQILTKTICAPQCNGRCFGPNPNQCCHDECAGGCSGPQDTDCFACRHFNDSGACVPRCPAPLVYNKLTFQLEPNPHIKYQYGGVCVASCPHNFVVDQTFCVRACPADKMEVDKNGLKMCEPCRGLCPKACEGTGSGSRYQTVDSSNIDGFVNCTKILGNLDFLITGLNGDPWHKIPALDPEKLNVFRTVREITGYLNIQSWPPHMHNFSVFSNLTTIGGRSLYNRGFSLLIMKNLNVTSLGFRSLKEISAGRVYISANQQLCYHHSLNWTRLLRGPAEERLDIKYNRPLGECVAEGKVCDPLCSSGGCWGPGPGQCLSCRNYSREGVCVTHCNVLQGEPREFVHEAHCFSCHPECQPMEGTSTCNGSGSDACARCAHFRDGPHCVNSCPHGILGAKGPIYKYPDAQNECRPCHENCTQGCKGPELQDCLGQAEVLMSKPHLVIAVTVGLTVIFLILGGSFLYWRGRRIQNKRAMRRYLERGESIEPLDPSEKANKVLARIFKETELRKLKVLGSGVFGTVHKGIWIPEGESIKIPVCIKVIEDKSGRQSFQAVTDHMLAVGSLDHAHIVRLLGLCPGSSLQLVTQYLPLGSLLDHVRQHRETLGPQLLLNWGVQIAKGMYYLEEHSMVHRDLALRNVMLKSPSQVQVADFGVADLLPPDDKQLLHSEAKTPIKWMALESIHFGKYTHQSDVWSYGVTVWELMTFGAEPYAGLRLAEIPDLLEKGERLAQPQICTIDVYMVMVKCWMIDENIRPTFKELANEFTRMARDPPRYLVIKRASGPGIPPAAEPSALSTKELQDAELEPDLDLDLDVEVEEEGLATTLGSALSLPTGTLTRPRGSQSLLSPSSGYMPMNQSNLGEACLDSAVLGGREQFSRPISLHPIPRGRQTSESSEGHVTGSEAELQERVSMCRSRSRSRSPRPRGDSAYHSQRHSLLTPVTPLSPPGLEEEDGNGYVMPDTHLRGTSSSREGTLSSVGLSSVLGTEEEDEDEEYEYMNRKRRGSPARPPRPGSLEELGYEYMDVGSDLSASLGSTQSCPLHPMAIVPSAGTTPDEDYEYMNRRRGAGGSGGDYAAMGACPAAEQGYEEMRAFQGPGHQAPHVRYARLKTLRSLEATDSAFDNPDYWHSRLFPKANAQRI
Description: as §1, with “CHO cell lines expressing human or mouse Her3 receptors were used to study species-cross reactivity. Cells” for “CHO-Her2, CHO-Her4, CHO-EGFR cells”

Her3/Avi/His10 receptor [8] = biological target: T7, Her3/Avi/His10 receptor (Homo sapiens (Human), UniProt P21860 20-643, limits assumed); assay: AlphaScreen ligand blocking: antibody titrated against 10 nM biotinylated NRG-1 beta and 10 nM Her3/Avi/His10, % signal
T7 construct: Soluble tagged receptor of the AlphaScreen assay; The antibodies are called anti-hHer3 there; not shown: Avi tag; His10 tag (ten histidines by its name)
T7 sequence (P21860 20-643 limits assumed): as the sequence (P21860 20-643 limits assumed) above
Description: (§2) SDI or Genovac purified anti-hHer3 Mabs were serially diluted two-fold into an assay buffer made from 25 mM Hepes, 100 mM NaCl, 0.5% BSA and 0.05% Tween20 in an opaque/white, half-well area plate (Costar). Mouse IgG1 antibody was used as a negative control (Southern Biotech; cat #010201). Biotinylated NRG-1 beta ligand and Her3/Avi/His₁₀ receptor were added sequentially at 10 nM concentration to the assay plate containing serially diluted antibodies. This mixture of receptor, ligand and the antibodies was incubated at room temperature with gentle shaking for 90 minutes. AlphaScreen Streptavidin Donor beads and His-Nickel chelate Acceptor beads were added into the assay at a final concentration of 20 μg/ml each. The light sensitive beads were handled under chromagreen filtered light. The assay plates were covered with foil and incubated at room temperature with gentle shaking for 1 hour. The plates were read in PE EnVision plate reader equipped with an Alpha module (dedicated laser for excitation and designed to measure the signal above the well). Table 7 listed IC₅₀ values in ligand blocking that were estimated using four parameter curve fitting with concentration titration graphs (FIGS. 7 A&B).

Her3/Avi/His10 receptor [9] = biological target: T7, Her3/Avi/His10 receptor; assay: AlphaScreen competition; antibody titrated against 10 nM biotinylated NRG-1 beta and 10 nM Her3/Avi/His10; n = 3
Description: as §2

- binding result [1]: no binding
- IC50 of inhibition of pHer3 (MCF7 cells stimulated with rhNRG1-β1, ELISA) [2]: 4.98 nM
- Kd [3]: 1.6 nM
- IC50 of pAKT inhibition (MCF7 cells stimulated with rhNRG1-β1, ELISA) [4]: 45.2 nM
- binding result [5]: no binding
- % Receptor Internalization (T47D cells, FACS) [6]: 14%
- binding result [7]: no binding
- binding result (mouse HER3/ErbB3): binds
- IC50 (Her3/Avi/His10 receptor [8]): 11 nM
- IC50 (Her3/Avi/His10 receptor [9]): 12.7 nM
B1: PO-3H7-E3 (antibody, V domains shown)
VH: EVQLQQSGAELVKPGASVKISCKASGYSFTGYYMNWVKQSHGKSLEWIGNINPYYGGSNYNQKFKARATLTVDKSSSTAYMQLNSLTSEDSAVYYCARKGDLYYSMDYWGQGTSVTVSS
VL: DIVMTQTPLSLPVSLGDQASISCRSSQSIVHSNGNTYLEWYLQKPGQSPKLLIYKVSNRFSGVPDRFSGSGSGTDFTLKISRVEAEDLGIYYCFQGSHVPPTFGGGTKLELKR
notes: Purified mouse IgG from a hybridoma; also called PO-3H7-E3-HC; PO-3H7-E3-LC
